Data: a protein production outcome set (Wang et al. 2014)

Assay: label from the status in PepcDB records

| Sequence | protein production |
| --- | --- |
| MDCCTENACSKPDDDILDIPLDDPGANAAAAKIQASFRGHMARKKIKSGERGRKGPGPGGPGGAGVARGGAGGGPSGD | failed |
| MDDGQDAGRSGHRKAATAREGAEAMKPETPGGTAALAKGLTLLDMVADAPEPPRFAELLRASGLPKPTFARILRTLIAYGLVRQDEARGTYVLGQRFLEMSHKVWESFDLVSAATPELERLAAELGETVALCRLDGTMTQYLAERSPNGLSVRVEVGRRVPLHCTAPGKALLAFQDPAVGRALLDRLTLDLQTAKTITTLDALQADLTLTRARGYSISYEEHLPGVNSVAAPVMGRDNTPMGVLVALGPSSRLDSSNIHPAGRELIAAARRITGAAGAVAISSRPRPRSATGRPSAELSCILPWGAQLGESPVWHEGEDALYWVDILHPAVHRFDPATGRNETCETGKLVSAVIPVTGGRLLVASQDGVEWLDFASGRLTPFVSPEAGIADNRLNDAKCGPDGAIWVGSMRIDASKPTGALYRINANGASERKEGGIIVSNGLGWSPDGRTFYFVDTVPGLIHAYDCDPATGALSQRREFARIPVADGRPDGLAVDAEGGVWCAIWDGWCVRRYLPNGKLDQVIDMPVPRPSSIAFGGPDLSTLFITSARTRLPASTLADAPLSGGLFSCRPGISGARIAMFEG | failed |
| MDDKAFTKELDQWVEQLNECKQLNENQVRTLCEKAKEILTKESNVQEVRCPVTVCGDVHGQFHDLMELFRIGGKSPDTNYLFMGDYVDRGYYSVETVTLLVALKVRYPERITILRGNHESRQITQVYGFYDECLRKYGNANVWKYFTDLFDYLPLTALVDGQIFCLHGGLSPSIDTLDHIRALDRLQEVPHEGPMCDLLWSDPDDRGGWGISPRGAGYTFGQDISETFNHANGLTLVSRAHQLVMEGYNWCHDRNVVTIFSAPNYCYRCGNQAAIMELDDTLKYSFLQFDPAPRRGEPHVTRRTPDYFL | failed |
| MDDNTPDLFAEPAAPEGDFLTLGRYAERQYLDYAVSVVKGRALPDVSDGQKPVQRRILYAMNEMGLGDNAKPVKSARVVGDVLGKYHPHGDQSAYDALVRLAQDFSMRYPLIDGQGNFGSRDGDGAAAMRYTEARLTPIAKLLLDEIDEGTVDFMPNYDGSFDEPKLLPARLPFVLLNGASGIAVGLATEIPSHNLREVAAAAVALIRHPALPHAELMQLVPGPDFPGGGQIISSDAEISAAYETGRGSLKVRARWKIEDLARGQWQLVVTELPPNTSCQKVLEEIEELTNPKLKAGKKTLTQEQINTKKTMLDLLDAVRDESGKDAPVRLVFEPKTRTIDQTEFVNSLLAHTSLESNAALNLVMIGEDGRPAQKGLASILGEWVRFRQATVTRRCRHRLGKVNDRIHILEGRMIVFLNIDEVIRIIREADEPKAALISAFGLTERQADDILEIRLRQLARLEKIKIEKELEELRAEKAKLEELLANESAMKRLMIKEIEADAKQYGDERRTLIQQEKRATFEAKVVDEPVTVVVSQKGWVRALKGHGLDPASFSFKAGDGLYAAFQCRTPDTLIAWGSTGRVYSVAVQVLPGGRGDGVPVTSLIELESGSHLLHYFAAPAEQPLLLASSNGFGFIAKIGDMVSRVKAGKSFMTIDTGAAPLAPMPVLPDASQVACLSSGGRLLVFGMDEMKTLSGGGRGVILMALDAKETLVQALAIDAAGVVLTGTGRGGKAQEEALAGGALEPHVGKRARKGRAPDTRLKVSGLRPVLG | failed |
| MDDRTEYDVYTDGSYVNGQYAWAYAFVKDGKVHYEDADVGKNPAAATMRNVAGEIAAALYAVKKASQLGVKIRILHDYAGIAFWATGEWKAKNEFTQAYAKLMNQYRGIYSFEKVKAHSGNEFNDYVDMKAKSALGIRDLEHHHHHH | not failed |
| MDDSAGHSGEDNALMEKHFMAAVVVTFQSGSTIDVCLARLRAAKDVAEICVVDNGSHDETLNIVQCHALADPRVRFVANLDNPGFAAACNQGAADVSAPWLVFVNPDLMVEPEILAQLRAYAEVYVPALLGVEQVDEHGYPDPAVRRRDPDFAAMLRNPRRGTQLAIPADPTQSLQLVPALSGALMLMSRLLFERLGGWDVGYRLHAEDLDLCRRARQVGATVAVVNTLQVVHLRGVSSRSRPFFVEWHKHCGLWRYFCKFEAPQRGLPVRLGVWLAIWSHAFFQCLGVWLRRR | failed |
| MDDSYMMVPMRRKRSQCDLAQMVQAIEEYDGSTQCEIDIDECASHPCKNGATCIDQPGNYFCQCVPPFKVFNFDGISSTSVQEFYHCEFGPCKASDSCENGAVRGEKMDLEMFPLEFRCQCASFSGPRCEINVNECSSSPCLHGYCYDMVDGFSCLCNPGYVGIRCEQDIDDCILNACEHNSTCKDLHLSYQCVCLSDWEGNFCEQESNECKMNPCKNNSTCTDLYKSYRCECTSGWTGQNCSEEINECDSDPCMNGGLCHESTIPGQFVCLCPPLYTGQFCHQRYNLCDLLHNPCRNNSTCLALVDANQHCICREEFEGKNCEIDVKDCLFLSCQDYGDCEDMVNNFRPGFSGSLCEIEINECSSEPCKNNGTCVDLTNRFFCNCEPEYHGPFCELDVNKCKISPCLDEENCVYRTDGYNCLCAPGYTGINCEINLDECLSEPCLHDGVCIDGINHYTCDCKSGFFGTHCETNANDCLSNPCLHGRCTELINEYPCSCDADGTSTQCKIKINDCTSIPCMNEGFCQKSAHGFTCICPRGYTGAYCEKSIDNCAEPELNSVICLNGGICVDGPGHTFDCRKACLYNCDNAKTRQESKELNKQQD | failed |
| MDEAYKMRCDWYHHGELVSGGESESKFSQLNDEVVELYQAAEYLDEEFAGMVHLGEIVERDDKKEDEFLAKLADAETPLYPSCFNHSKLSAIMSLFTLKTKNGWSDKSHNDLLETLPEMLLEDNVLHSSLYEVKKFLKSFDMG | failed |
| MDEGCVIAFLVWVDNGECILERQSAPDELNLFDIILVAKEQWRLLLAVPLLLAVLAAGISLAMPDQYTAKALVNIPAPVGAAGGVNIVQSTSLLEQAVEKFQLQRYYAVEDNRSALLALSNVVKTTAGKDGLLEISATDRNAEQAARLGNYLADLTRQHILDGNLTEQSKRYFVLQKRLDVESEQVSQLSRKVAQLVPDQEAALGGEGMQLISGFATLEAQLAFQNVQAAGNSGAVSNLQSSVMQLRASLELANPKVRQMSNEQLAGLRDLYFHRALAAELQRQVSLAKSLADQDVQIVLKASAPLEKSGPKRTLIVLLAGLVGLMLAIALIVCKRQWRELSNRFAKNTAA | failed |
| MDEGRRINIPKIGAVKCKFHRLLEGTPKTLQIVLDVNEWYAVYTCEVPVQPLPETGSTVGVDVGTRYFAITSDGEFVHNPRHLGSALKKLRVQQRTVSRRKKGGNRRRKAVGQVAKTHRKIRRSRQDFHHKVAVKLVRENDLIAHEDLRVSNVVKSNLARSISDVGWSAFFDILRGKAESAGRVVVRVPPQYTSQRCHACGHTCRENRNNEVFKCVSCGHEDHADWNAAKNILGRAVPSGVNGSGVSHAVA | failed |
| MDEILTNTATPEVGGVAQLSPSAARTKARIALAVMLVPLFGTLEAIRLWFTGQVHALDFILFAVFYAVQMFGVSMGYHRYLAHRAFKTSRLMSSLMLIAGCMAAQGPILFWVTTHRRHHTYSDQHGDPHSPNLMGQSRWQRAKGLWHAHMPWMLAPDMSSWNFFAPDILRDRRLFFYNQTYLFWVALGVILPGVIGGLVSQSWSGAWSGLIFGGLARIFVANQAAWCVGSICHRYGARPFVTHDQSTNNWIVAFLTFGEGLQNNHHAFPAWYRHGVHWWEPDLSGWTLALMGKLRLVSDLRSPSQAMIDKVRKRQASS | failed |
| MDEKEKNLNENSENESTPKREVEDTLHTPESAQPVQETPIVEGVTPEGEKFAGATEDAAEASSTNAFFEEASNKESEPARPAPGPRRAGTTGGGAVPPNRVNNGGSGNGNGEPPKRGKHFIGYFLTALIGVIIGGLIIFFVAWDNGDNADTTSNSNNKATKVEKVSVDTTSDVTKAVDKVQDAVVSVLNYQSSSSLDGTTTSEQEASSGSGVIYKKANGKAYIVTNNHVVADANKLEVTFTNGKKSEAKLLGTDEWNDLAVLEIDDKNVTTVAAFGDSDSLKLGEPAIAIGSPLGTEFSGSVTQGIISGLNRAVPVDTNGDGTEDWEADVIQTDAAINPGNSGGALINIEGQVIGINSMKISMENVEGISFAIPSNTVEPIIEQLETKGEVERPSLGVSLRDVDTIPETQQKNILKLPDSVDYGAMVQQVVSGSAADKAGLKQYDVIVELNGQKVTNSMTLRKILYGNDVKIGDKVKVKYYRDGKEKSTDIKLEAAKTTT | failed |
| MDELELRIRKAEKLVQDAKKEFEMGLYERCCSTAYYAMFHAAKAMLLGYGRDSKTHRGTIYLIWECREELGLSDDDCSKLSRAFDLREESDYGIYKEVSKDLAIKILKDAEIFVQKAKNAVNKNR | not failed |
| MDELKLYTYIAVFSTFALYFAIAWWARAGSTSDFYVAGGGITPMQNGMAIGADWMSAASFISMAGLIAFLGYGGSVFLMGWTGGYVLLAMLLAPYMRKHGKFTVPEFIFDRYYSKTARIVAVACLIIASLTYIIGQMKGVGVAFSRFLEVDYGLGLGIGMFVVWVYAVLGGMKGITYTQIAQYVVMIFAYTIPAIFISLQLTGNPIPQLGLGSTLADGSGVYLLDKLDMVVTDLGFKEYTTSNLGGTLNMFAYTISLMIGTAGLPHVIMRFFTVPSVQAARQSAGYALVFIGLLYTVAPAVGAMARLNLMNTIEPTAGQNLVYDERPQWFKDWEKTGLLKFEDKNGDGKIQYTSNATDQTVTKINTMTGKEIVVVPNEMVKVDRDIMVLANPAIANLPNWVIALVAAGGLAAALSTAAGLLLAISSSISHDLMKGVLTPDLSEKNELLAGRVVMTIAILVSGYLGLHPPGFAAGTVALAFGLAASSIFPALMMGIFSKKMSGTAAISGMVAGIGVTMMYVFQHKGIMFIPGTSFLGDMGKDWFFGISPNAFGAVGAIVNFGVAFIVLQFTGPCPANIVAMVENMRAPGDCAAAHDH | failed |
| MDELRQKLQYSSFELEAVKAKANEETKLHQEEVKNLLHLLKLARQERDEAKDQLQKLLTIKTNSSITESNSHGSSPVDSFFEPVSSSEFSNFNMVPEPINQVKFKNRQQLVNRNLKKIDPVDALMDEIIKGKALPEKGKLLQTVMESGPLLQTLLVAGPLPRWRNPPPLQQSFRVPPISNSYGCLPATTTTSMLNFRGCSVPRIATGIEVATKRQRFH | failed |
| MDEMRPPPRSRTIYLLPNLFTTAGLFSGFYAIIAAANGQFVQAAMAVFVAAVMDGLDGRVARLTNTSSEFGVQYDSLADLVSFGMAPALVMYHWSLSALKYDSSVMGRVGWSAAFLYAACAALRLARFNTQVGVVDKRWFIGLASPAAAGLMMSFVWAFADDSLGFDGEQLRYVALAVTVVSALLMVSRIRFWSFKGGARGPRADRVPFLALAIATVVIALLVIDLARSLLVIGVLYALSGPLMWLWRRWRRVPELP | failed |
| MDEQAVSTSMKTVYIRIYTSVLYTSYTKPGNWSAVDRSAWSVSCSNVYADDDAKYGAHLAIDGEINTTWFTWGVANAGECWWNTVLDRPVTLTGFSVTKQSAYGSGYNLRSAEIKVRKEGETEWVTYPRVLTFRNFKGADPQYAAIEPPIPNVKEFRINCLTPDNYTGFAEINLYVKQLEHHHHHH | not failed |
| MDESKKISLGQFFTPTHIVKYMIGLMTKNKNASILEPSSGNGVFLDSLIQLGYTNLTSYEIDGDIISHPFVINSSFITSYDKPQYDSIIGNPPYVRWKNLSELQKKELKDNSIWKMYCNSLCDYFYIFIIKSILQLKVGGELIFICPDYFFSTKNAEGLRKFLINNGSFEKIILFNESKVFHGVSSSVVIFKYIKGKNIDNINIINIDSKSPIKSEDIE | failed |
| MDEVLLVKKLVEDAIVPTRGSKCAAGIDLYSNTNFIIQPHERFLVSTGVSVQIPHQCYGRIAPRSSLALKYGIDVGAGVIDEDYRGEIKVILFNHSNEIFNGRKGDRIAQLIIERISYCRISEVKELNTTDRGTNGFGSTGK | not failed |
